# Patent US20220154221, “SITE SPECIFIC RECOMBINASE INTEGRASE VARIANTS AND USES THEREOF IN GENE EDITING IN EUKARYOTIC CELLS” (RAMOT AT TEL-AVIV UNIVERSITY LTD., published 2022)
# Where a chain is given by its changes, count along the chain named.
# T1: HK022 Int E174K+D278K (Bacteriophage HK022, UniProt P16407 SEQ:1-357, E174K,D278K)
# T1 sequence: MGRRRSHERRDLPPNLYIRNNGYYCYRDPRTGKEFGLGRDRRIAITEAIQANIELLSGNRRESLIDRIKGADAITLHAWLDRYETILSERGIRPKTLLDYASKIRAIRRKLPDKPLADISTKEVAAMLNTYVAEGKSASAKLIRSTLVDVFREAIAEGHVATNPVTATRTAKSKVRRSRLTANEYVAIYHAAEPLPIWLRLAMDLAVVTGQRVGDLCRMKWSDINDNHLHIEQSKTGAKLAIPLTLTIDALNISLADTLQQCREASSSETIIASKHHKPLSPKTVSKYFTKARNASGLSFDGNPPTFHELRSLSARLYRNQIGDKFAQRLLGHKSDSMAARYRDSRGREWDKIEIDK
# T2: HK022 Int E174K+I43F+R319G (Bacteriophage HK022, UniProt P16407 SEQ:1-357, I43F,E174K,R319G)
# T2 sequence: T1 sequence with I43F, K278D, R319G
# T3: HK022 Int D278K (Bacteriophage HK022, UniProt P16407 SEQ:1-357, D278K)
# T3 sequence: T1 sequence with K174E
# T4: HK022 Int E174K (Bacteriophage HK022, UniProt P16407 SEQ:1-357, E174K)
# T4 sequence: T1 sequence with K278D
# T5: HK022 integrase (oInt / wild type) (Bacteriophage HK022, UniProt P16407 SEQ:1-357)
# T5 sequence: T1 sequence with K174E, K278D
# B1: DMD2 attB (dsDNA)
# DNA 1: TTGCTTAATGGAGAAAAGGTA
# DNA 2: TACCTTTTCTCCATTAAGCAA
# B2: DMD3 attB (dsDNA)
# DNA 1: GTGCTTTAAAAAGAAAAGGGG
# DNA 2: CCCCTTTTCTTTTTAAAGCAC
# B3: wild-type attB (dsDNA)
# DNA 1: GCACTTTAGGTGAAAAAGGTT
# DNA 2: AACCTTTTTCACCTAAAGTGC
# Tests used:
# HK022 Int E174K+D278K = biological target: T1, HK022 Int E174K+D278K; test: cell_activity; genomic RMCE at DMD2/DMD3, HEK293; details: chain copies: 4
# Description: (§1) Plasmid transformations were performed by electroporation (Sambrook, J., et al (1989) Cold Spring Harbor, N.Y.). Plasmids and oligomers are listed in Tables 1,3,5 and 2,4,6 respectively. Human embryonic kidney cells HEK293, 293T, and 293 Flp-In were cultured in Dulbecco's modified Eagle's medium (DMEM). For transient transfection 293T cells (˜6×10⁵) were plated in a 6 well plate and 24 h later treated with 3 μg of the proper plasmid DNA using PureFection Transfection Reagent (System Biosciences, Mountain View, Calif., USA). For the model chromosomal assay transfection, 293 Flp-In cells (˜6×10⁵) were plated in a 6 well plate and 24 h later treated with 5.5 μg of the proper plasmid DNA using Mirus Transfection Reagent (Mirus, Wis., USA). For the CTNS and DMD chromosomal assay transfection, HEK293 cells (˜6×10⁵) were plated in a 6 well plate and 24 h later treated with 3 μg of the proper plasmid DNA using PureFection Transfection Reagent.
# (§2) In the DMD model, DMD2 and DMD3 “attB” sites were chosen which are 23 Kb apart located in introns 43 and 44 respectively that flank exon 44 (FIG. 12B). The relevant deletion mutation located in exon 44 is described (GM23715, Coriell institute). A GFP promoter trap whose incoming plasmid carried a splicing acceptor (SA), a ribosomal skipping site (2A) and the ORF of EGFP with a polyA sequence (FIG. 12A) was used. All are flanked with the two relevant “attP”s 1.4 Kb apart. […] The correct sequence of all PCR products was confirmed by NGS.
# [1] = biological target: T2, HK022 Int E174K+I43F+R319G; test: cell_activity; genomic RMCE at DMD2/DMD3, HEK293; details: chain copies: 4
# Description: as §1, §2
# [2] = biological target: T2, HK022 Int E174K+I43F+R319G; test: cell_activity; trans attB x attP, HEK293T; details: chain copies: 4
# Description: (§3) To examine the activity of these Int variants, an analytic assay was performed of a transient trans integrative recombination reaction using the wild type attB and attP sites in human HEK293T cells in which each att site is located on a different substrate plasmid (FIG. 2B). The first substrate (pMK221) carries the attP site downstream to the cytomegalovirus promoter (CMV). The second plasmid (pMK223) carries the attB downstream to the open reading frame (ORF) of the green fluorescent protein (GFP) and upstream to a transcription terminator (Stop).
# (§4) A productive attB×attP reaction forms a dimer plasmid encoding CMV-promoted GFP expression (FIG. 2B). HEK293T cells were co-transfected with these two substrate plasmids, with or without an Int-expressing plasmid (the oInt pNA979, or one of its Int mutant derivatives). 48 hours post-transfection GFP expressing cells were analyzed by fluorescence-activated cell sorting (FACS).
# HK022 Int D278K = biological target: T3, HK022 Int D278K; test: cell_activity; trans attB x attP, HEK293T; details: chain copies: 4
# Description: as §3, §4
# HK022 Int E174K = biological target: T4, HK022 Int E174K; test: cell_activity; trans attB x attP, HEK293T (Example 8 quotes 147%); details: chain copies: 4
# Description: as §3, §4
# [3] = biological target: T5, HK022 integrase (oInt / wild type); test: cell_activity; trans attB x attP integration, HEK293T, reference; details: tags: human codon-optimised (oInt) in human cells; native gene in E. coli; chain copies: 4
# Description: as §3, §4
Binder,activity (HK022 Int E174K+D278K) [% cells],activity [1] [% cells],integration activity [2],integration activity (HK022 Int D278K),"recombination activity (GFP+ cells, relative to oInt) (HK022 Int E174K)",integrative recombination activity [3]
B1,0.4,0.4,,,,
B2,0.4,0.4,,,,
B3,,,2.3 fold of oInt,1.48 fold of oInt,1.54 fold of oInt,1 fold of oInt
